The target of assay [1] is human CD137 expressed on Jurkat cells (human, UniProt Q07011 24-255). Nature of the assay: cell-based or functional assay.
Assay [2] concerns the target T1, human serum albumin (human, UniProt P02768 25-609).
T1 construct: Amine-coupled to a CM5 chip; also called human SA; HSA
The assay is described as follows: SPR (Biacore T200), serum albumin amine-coupled to CM5 chip, pH 5.5. The method, then: Affinity of molecules to serum albumin (SA) of the different species was determined by SPR measurements using a Biacore T200 device (GE Healthcare). SA was directly coupled to a CM5 sensor chip (GE Healthcare) using amine coupling chemistry. […] The assay was run in a 1×PBS-Tween buffer at pH 5.5.

Assay [3] has as its target T2, Fc tagged human PD-L1 (human, UniProt Q9NZQ7 19-238, limits assumed).
T2 construct: not shown: Fc tag
Nature of the assay: SPR (Biacore T200), Fc tagged PDL1 captured by anti-human Fc, molecule as analyte 0.18-45 nM. How it is done:
(§1) Affinity to PDL1 was determined by SPR measurements using a Biacore T200 device (GE Healthcare). In this experiment, Fc tagged PDL1 from different species was captured using the Human Antibody Capture kit from GE Healthcare (cat. BR-1008-39). After each analyte injection cycle, the anti-human Fc-specific IgG was regenerated and new antigen was captured. For all formats, the multispecific molecules were injected as analyte using a dose response multi-cycle kinetic assay with concentrations of the analyte ranging from 0.18 to 45 nM (two-fold dilutions steps) diluted in running buffer. Association and dissociation time were set to 300 s and 720 s, respectively. The apparent dissociation (kd) and association (kₐ) rate constants and the apparent dissociation equilibrium constant (KD) were calculated using one-to-one Langmuir binding model. Affinity to CD137 of the different species was determined using the identical setup as for PDL1 with the exception that CD137-Fc chimeric proteins from different species were captured by the immobilized antibody.
For orientation: Surface plasmon resonance follows binding to a sensor surface in real time, without labels.

The target of assay [4] is T3, Fc tagged human CD137 (R&D Systems, cat. 838-4B-100) (human, UniProt Q07011 24-186).
T3 construct: Bought Fc chimera; also called CD137 Fc chimera; human CD137 (tagged with Fc); not shown: Fc tag of the bought chimera
Nature of the assay: SPR (Biacore T200), Fc tagged human CD137 captured by anti-human Fc, scFv as analyte. The method, then:
In this experiment, Fc tagged human CD137 (R&D Systems, cat. 838-4B-100) was captured using the Human Antibody Capture kit from GE healthcare (cat. BR-1008-39). After each analyte injection cycle, the anti-human Fc-specific IgG was regenerated and new antigen was captured. The scFvs were injected as analyte using a dose response multi-cycle kinetic assay over the captured CD137 with concentrations of the analyte ranging from 0.19 to 45 nM (three-fold dilutions steps) diluted in running buffer. Association and dissociation time were set to 300 s and 720 s, respectively. The obtained sensorgrams were fitted using the 1:1 binding model.

For assay [5], the target named is CD137 (form used for the alanine mutants of PRO1359 not stated) (Homo sapiens (Human), UniProt Q07011 24-186, limits assumed). The assay is described as follows: assay not described.
Assay [6] concerns the target T3, Fc tagged human CD137 (R&D Systems, …). Nature of the assay: SPR (Biacore T200), CD137-Fc captured by anti-human Fc, molecule as analyte 0.18-45 nM. The method, then: as §1

B1: PRO1480 (other)
chain: DIQMTQSPASLSASVGDRVTITCQASQSIGTYLAWYQQKPGKPPKLLIYRAFILASGVPSRFSGSGSGTDFTLTISSLQPEDFATYYCQSNFYSDSTTIGPNAFGTGTKVTVLGGGGGSEVQLVESGGGLVQPGGSLRLSCAASGFSFSANYYPCWVRQAPGKGLEWIGCIYGGSSDITYDANWTKGRFTISRDNSKNTVYLQMNSLRAEDTAVYYCARSAWYSGWGGDLWGQGTLVTVSSGGGGSGGGGSGGGGSGGGGSIQMTQSPSSLSASVGDRVTITCQASQSISNRLAWYQQKPGKAPKLLIYSASTLASGVPSRFSGSGSGTDFTLTISSLQPEDFATYYCQSTYYGNDGNAFGTGTKVTVLGGGGGSEVQLVESGGGLVQPGGSLRLSCAASGFSFNSDYWIYWVRQAPGKGLEWIASIYGGSSGNTQYASWAQGRFTISRDNSKNTVYLQMNSLRAEDTAVYFCARGYVDYGGATDLWGQGTLVTVSSGGGGSGGGGSIQMTQSPSSLSASVGDRVTITCQSSESVYSNNQLSWYQQKPGQPPKLLIYDASDLASGVPSRFSGSGSGTDFTLTISSLQPEDFATYYCAGGFSSSSDTAFGGGTKLTVLGGGGGSGGGGSGGGGSGGGGSEVQLVESGGGLVQPGGSLRLSCAASGFSLSSNAMGWVRQAPGKGLEYIGIISVGGFTYYASWAKGRFTISRDNSKNTVYLQMNSLRAEDTATYFCARDRHGGDSSGAFYLWGQGTLVTVSS
notes: Trispecific scDb-scFv; CD137 arm derived from 38-27-A11 sc02; also called PRO1480 (38-27-A11); trispecific anti-PDL1xCD137xHSA scDb-scFv
What is called Kd is the equilibrium constant for the complex coming apart. Low values mean tighter binding, high ones weaker binding. By koff is commonly meant a measure of how fast the partners let go of each other. A higher koff goes with fast dissociation. B1: in assay [1], the “IC50 (ng/ml), activation of NF-kB reporter gene, HCC827 + IFNg, 6 h, with HSA” value is 6.44 ng/mL and the “IC50 (ng/ml), activation of NF-kB reporter gene, HCC827 + IFNg, 24 h, with HSA” value was 4.67 ng/mL. In assay [2], this molecule showed a Kd of 1.03 nM and a koff of 0.000337 s⁻¹. In assay [3], this molecule had a dissociation constant Kd of 0.015 nM and a koff of 5.1e-05 s⁻¹.

B2: PRO1481 (other)
chain: DIQMTQSPASLSASVGDRVTITCQASQSIGTYLAWYQQKPGKPPKLLIYRAFILASGVPSRFSGSGSGTDFTLTISSLQPEDFATYYCQSNFYSDSTTIGPNAFGTGTKVTVLGGGGGSESQLVESGGGLVQPGGSLRLSCAASGFSFSANYYPCWVRQAPGKGLEWIGCIYGGSSDITYDANWTKGRFTISRDNSKNTVYLQMNSLRAEDTAVYFCARSAWYSGWGGDLWGPGTLVTVSSGGGGSGGGGSGGGGSGGGGSFQLTQSPSSLSASVGDRVTITCQASQSISNRLAWYQQKPGKPPKLLIYSASTLASGVPSRFSGSGSGTDFTLTISSLQPEDFATYYCQSTYYGNDGNAFGTGTKVTVLGGGGGSEVQLVESGGGLVQPGGSLRLSCAASGFSFNSDYWIYWVRQAPGKGLEWIASIYGGSSGNTQYASWAQGRFTISRDNSKNTVYLQMNSLRAEDTAVYFCARGYVDYGGATDLWGQGTLVTVSSGGGGSGGGGSIQMTQSPSSLSASVGDRVTITCQSSESVYSNNQLSWYQQKPGQPPKLLIYDASDLASGVPSRFSGSGSGTDFTLTISSLQPEDFATYYCAGGFSSSSDTAFGGGTKLTVLGGGGGSGGGGSGGGGSGGGGSEVQLVESGGGLVQPGGSLRLSCAASGFSLSSNAMGWVRQAPGKGLEYIGIISVGGFTYYASWAKGRFTISRDNSKNTVYLQMNSLRAEDTATYFCARDRHGGDSSGAFYLWGQGTLVTVSS
notes: Trispecific scDb-scFv; CD137 arm derived from 38-27-A11 sc03
B2: in assay [1], the “IC50 (ng/ml), activation of NF-kB reporter gene, HCC827 + IFNg, 6 h, with HSA” value worked out at 7.22 ng/mL and the “IC50 (ng/ml), activation of NF-kB reporter gene, HCC827 + IFNg, 24 h, with HSA” value turned out to be 5.51 ng/mL. The off-rate constant (koff) in assay [3] was determined as 4.3e-05 s⁻¹.

B3: PRO1704 (38-27-A11 sc07) (scFv)
scFv: DIQMTQSPSSLSASVGDRVTITCQASQSISNRLAWYQQKPGKAPKLLIYSASTLASGVPSRFSGSGSGTDFTLTISSLQPEDFATYYCQSTYYGNDGNAFGCGTKVTVLGGGGGSGGGGSGGGGSGGGGSEVQLVESGGGLVQPGGSLRLSCAASGFSFSANYYPCWVRQAPGKCLEWIGCIYGGSSDITYDANWTKGRFTISRDNSKNTVYLQMNSLRAEDTAVYYCARSAWYSGWGGDLWGQGTLVTVSS
notes: VL-linker-VH, CDR graft with interdomain disulfide (VL-T141C)
In general, kon refers to a measure of how fast the partners come together. As for B3, in assay [4], binding was characterised by a dissociation constant (Kd) of 3.07 nM, the off-rate (koff) came to 0.00353 s⁻¹ and the kon stood at 1.15e+06 M⁻¹ s⁻¹.

B4: PRO1359 with TRP 233 mutated to alanine (scFv)
scFv: DIQMTQSPSSLSASVGDRVTITCQASQSISNRLAWYQQKPGKAPKLLIYSASTLASGVPSRFSGSGSGTDFTLTISSLQPEDFATYYCQSTYYGNDGNAFGTGTKVTVLGGGGGSGGGGSGGGGSGGGGSEVQLVESGGGLVQPGGSLRLSCAASGFSFSANYYPCWVRQAPGKGLEWIGCIYGGSSDITYDANWTKGRFTISRDNSKNTVYLQMNSLRAEDTAVYYCARSAAYSGWGGDLWGQGTLVTVSS
For B4, the “fold reduction of affinity against unmutated PRO1359” value in assay [5] is above 1000 fold.

B5: PRO1359 with TYR 191 mutated to alanine (scFv)
scFv: DIQMTQSPSSLSASVGDRVTITCQASQSISNRLAWYQQKPGKAPKLLIYSASTLASGVPSRFSGSGSGTDFTLTISSLQPEDFATYYCQSTYYGNDGNAFGTGTKVTVLGGGGGSGGGGSGGGGSGGGGSEVQLVESGGGLVQPGGSLRLSCAASGFSFSANYYPCWVRQAPGKGLEWIGCIYGGSSDITADANWTKGRFTISRDNSKNTVYLQMNSLRAEDTAVYYCARSAWYSGWGGDLWGQGTLVTVSS
On to B5, for which the “fold reduction of affinity against unmutated PRO1359” value in assay [5] is above 1000 fold.

B6: PRO1186 (other)
chain: DIQMTQSPSSLSASVGDRVTITCQASQSIGTYLAWYQQKPGKAPKLLIYRAFILASGVPSRFSGSGSGTDFTLTISSLQPEDFATYYCQSNFYSDSTTIGPNAFGTGTKVTVLGGGGGSQVQLQESGPGLVKPSETLSLTCKVSGFSFSNSYWICWIRQPPGKGLEWIGCTFVGSSDSTYYANWAKGRVTISVDSSKNQFSLKLSSVTAADTAVYYCARHPSDAVYGYANNLWGQGTLVTVSSGGGGSGGGGSGGGGSGGGGSDIQMTQSPSSLSASVGDRVTITCQASQSINNVLAWYQQKPGKAPKLLIYRASTLASGVPSRFSGSGSGTDFTLTISSLQPEDFATYYCQSSYGNYGDFGTGTKVTVLGGGGGSQVQLQESGPGLVKPSETLSLTCKVSGFSFNSDYWIYWIRQPPGKGLEWIGSIYGGSSGNTQYASWAQGRVTISVDSSKNQFSLKLSSVTAADTAVYYCARGYVDYGGATDLWGQGTLVTVSSGGGGSGGGGSVVMTQSPSSLSASVGDRVTITCQASQIISSRSAWYQQKPGQPPKLLIYQASKLASGVPSRFSGSGSGTDFTLTISSLQPEDFATYYCQCTYIDSNFGAFGGGTKLTVLGGGGGSGGGGSGGGGSGGGGSEVQLVESGGGLVQPGGSLRLSCAASGFSFSSSYWICWVRQAPGKGLEWVGCVFTGDGTTYYASWAKGRFTISRDNSKNTVYLQMNSLRAEDTATYFCARPVSVYYYGMDLWGQGTLVTVSS
notes: Trispecific scDb-scFv with a different anti-CD137 domain; also called PR01186
As for B6, the on-rate constant (kon) in assay [6] was 190000 M⁻¹ s⁻¹.

B7: PRO885 (bispecific antibody)
chain: DIQMTQSPSSLSASVGDRVTITCQASQSINDYLAWYQQKPGKAPKLLIYKASTLASGVPSRFSGSGSGTDFTLTISSLQPEDFATYYCQQGYIITDIDNVFGTGTKVTVLGGGGGSQVQLQESGPGLVKPSETLSLTCKVSGFSFSNSYWICWIRQPPGKGLEWIGCTFVGSSDSTYYANWAKGRVTISVDSSKNQFSLKLSSVTAADTAVYYCARHPSDAVYGYANNLWGQGTLVTVSSGGGGSGGGGSGGGGSGGGGSIQMTQSPSSLSASVGDRVTITCQASQSINNVLAWYQQKPGKAPKLLIYRASTLASGVPSRFSGSGSGTDFTLTISSLQPEDFATYYCQSSYGNYGDFGTGTKVTVLGGGGGSQVQLQESGPGLVKPSETLSLTCKVSGFSFSSGYDMCWIRQPPGKGLEWIGCVVAGSVDITYYASWAKGRVTISVDSSKNQFSLKLSSVTAADTAVYYCARKDAYSDAFNLWGQGTLVTVSS
In the case of B7, the values for the Kd in assay [6] and in assay [3] were 3.2 nM and 0.065 nM, respectively.

These data come from patent US20210395379A1 (NUMAB THERAPEUTICS, published 2021).
